Measurements: US20130053541A1, “METHODS FOR DISCOVERING MOLECULES THAT BIND TO PROTEINS” (LYNNTECH, INC., priority 2011, published 2013)
Where no end group is shown, it is not given here.

T1: native human ESRRG protein (Homo sapiens, UniProt P62508)
T1 sequence (P62508 1-458): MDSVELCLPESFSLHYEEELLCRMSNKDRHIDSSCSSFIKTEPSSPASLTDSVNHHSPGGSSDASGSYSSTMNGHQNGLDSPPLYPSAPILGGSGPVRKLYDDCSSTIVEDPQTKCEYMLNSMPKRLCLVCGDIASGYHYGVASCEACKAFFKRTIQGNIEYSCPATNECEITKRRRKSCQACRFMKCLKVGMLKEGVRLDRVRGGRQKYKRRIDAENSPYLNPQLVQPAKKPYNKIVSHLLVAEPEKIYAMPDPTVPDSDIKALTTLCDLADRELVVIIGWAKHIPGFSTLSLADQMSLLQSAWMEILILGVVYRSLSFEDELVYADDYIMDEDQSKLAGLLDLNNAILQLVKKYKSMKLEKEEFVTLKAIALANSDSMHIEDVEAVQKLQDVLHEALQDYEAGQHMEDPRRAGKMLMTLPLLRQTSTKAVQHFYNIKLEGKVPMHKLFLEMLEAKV

T2: native human ESRRG protein (Estrogen-receptor related receptor gamma) (human, UniProt P62508 229-458, limits assumed)
T2 construct: the screened protein is called 'native human ESRRG protein'; also called ESSRG; ERRγ
T2 sequence (looked up): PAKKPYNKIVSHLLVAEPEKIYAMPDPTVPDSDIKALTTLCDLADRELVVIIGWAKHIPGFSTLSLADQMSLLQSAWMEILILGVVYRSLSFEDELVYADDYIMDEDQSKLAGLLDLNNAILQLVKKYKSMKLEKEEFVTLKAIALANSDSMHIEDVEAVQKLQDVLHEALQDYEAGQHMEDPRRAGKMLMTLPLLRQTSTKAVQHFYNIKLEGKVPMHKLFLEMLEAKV

B1: LFLLQQDD (peptide)
peptide: Ac-LFLLQQDD
B2: EDSYPRDG (peptide)
peptide: Ac-EDSYPRDG
B3: HLKLKQEN (peptide)
peptide: Ac-HLKLKQEN
B4: HYKLKQHE (peptide)
peptide: Ac-HYKLKQHE
B5: NNNFSLHM (peptide)
peptide: Ac-NNNFSLHM
B6: WNSYPRND (peptide)
peptide: Ac-WNSYPRND
B7: DNNYLLLL (peptide)
peptide: Ac-DNNYLLLL
B8: LFKLKQDG (peptide)
peptide: Ac-LFKLKQDG
B9: DINFSLGI (peptide)
peptide: Ac-DINFSLGI
B10: WIKLKQND (peptide)
peptide: Ac-WIKLKQND
B11: HDNMYLNE (peptide)
peptide: Ac-HDNMYLNE
B12: PDSYPRWG (peptide)
peptide: Ac-PDSYPRWG
B13: NLLLKHPD (peptide)
peptide: Ac-NLLLKHPD
B14: TGKLKQDG (peptide)
peptide: Ac-TGKLKQDG
B15: NFNYLLPH (peptide)
peptide: Ac-NFNYLLPH
B16: FFKGHFKF (peptide)
peptide: Ac-FFKGHFKF
B17: WANYLLPP (peptide)
peptide: Ac-WANYLLPP
B18: HRSYPRRG (peptide)
peptide: Ac-HRSYPRRG

Target: T1, native human ESRRG protein
Assay: peptide microarray screening for ESRRG binding (Iteration 1 and 2)
Details: Iteration 1 primary screen; fluorescence intensity units
Description: The BLOSUM62 matrix was divided into Tiers based, with Tier 1 comprising “most conserved” (lowest penalty) and Tier 3 comprising “least conserved” (highest penalty) mutations observed in nature. Sequences for microarray production for the primary stage (Iteration 1) of screening for protein binding were created by permuting AA positions 4 and/or 5 only (i.e., core of sequence) of parent 8-mer peptides using Tier 1 and Tier 3 substitutions. This allows the systematic variation of the sequence in order to identify the most important motif within the larger candidate ligand sequence that is needed for binding the target protein. All peptides on the array were grown from the C→N terminal, with the exposed N-terminal amino acid masked by an acetyl group to prevent folding of the sequence and enable full presentation of the peptide to its target protein.
(§1) Screening was carried out typically by hybridization of the protein (1 μg/mL) against the array for 1 h at 4° C.; detection of bound protein was carried out using a fluorescently labeled anti-ESRRG mAb. (Direct labeling of ESRRG and alternative detection strategies are equally valid).
Highest binders (based on relative fluorescence signal) were selected and iteratively sequence expanded and arrayed (Iteration 2); and ESRRG binding sequences were selected as above. For iterative arrays, the core positions (AA 4 and 5) were kept unchanged while the outer amino acids (2, 3, 6, and/or 7) were permuted using Tier 3 substitutions.
Daughter candidate ligands and their new Tier 3 and/or Tier 1 based combinations were synthesized in situ on an addressable peptide microarray and screened against native human ESRRG protein in order to determine sequences that bind to this protein. Bound protein was detected by a fluorescently labeled anti-ESRRG mAb. Results are obtained in fluorescence intensity units which were used to rank the peptide ligands. Excess (100×) competing biological matrices (human serum, HSA/BSA or bacterial protein extract) were used as backgrounds to select for specific ligands to the protein. Other competing proteins can be added to background for specificity selection and directed evolution of ligands.
Iterative sequence expansion and arraying of 10 highest binding ligands to ESRRG from Iteration 1 was carried out and the new peptide sequences were synthesized on an array and screened against the protein, as described above. In this step, the central 2 amino acids (core) in peptide sequences were maintained unchanged while outlying amino acids (2, 3, 6, and 7) were permuted (using Tier 1 and Tier 3 substitutions) in a ‘cipher’ or ‘combination’ lock approach. Further affinity maturation of sequence was observed, with multifold enhancement in binding signal of Iteration 2 sequences (i.e., Granddaughters) compared to their respective parents from Iteration 1 (i.e., Daughters) on the same array.

Molecule | Sample A (Bkgd) Signal | Sample B (Probe) Signal
LHLKGSQT | 6.97 | 
LHLRYSQT | 33.10 | 
LLHLQKSQ | 14.95 | 
NIKVHANN | 9.00 | 
NNSWSLHL | 23.54 | 
NSLLQHLL | 2.42 | 9,739.76
NSLRQHLL | 47.85 | 3,242.55
NSLRSHLL | 20.67 | 1,673.50
NSLSWHLL | 25.76 | 1,042.20
RKAIFGKY | 23.63 | 
RKALVGKY | 28.08 | 

Same assay, conditions: Iteration 2 iterative screen; fluorescence intensity units

Molecule | Sample A (Bkgd) Signal | Sample B (Probe) Signal
LFKLKQND | 366.58 | 1,857.96
LFLLQQDD | 219.12 | 2,423.10
LILLQQLD | 177.10 | 1,251.12
MYKLKQDN | 184.58 | 
NFNYLLPH | 470.56 | 13,817.90
NLLLKHPD | 216.15 | 2,297.98
NNNFSLHM | 199.94 | 4,374.19
NNSYPRHR | 731.12 | 3,422.79
PDSYPRWG | 288.88 | 5,591.60
PFKLKQGN | 1,523.23 | 6,982.96
PGKGHFPI | 260.71 | 
PWKLKQDP | 197.52 | 1,339.15
RLLHYGSY | 290.67 | 1,203.13
RRSYPRGR | 445.58 | 1,661.87
TGKLKQDG | 209.87 | 2,464.29
VLLHYGLY | 347.96 | 1,796.19
WANYLLPP | 182.90 | 2,860.10
WGKLKQGE | 209.10 | 1,231.15
WIKLKQND | 181.65 | 2,343.96
WLLLKHGL | 222.13 | 
WNSYPRND | 292.56 | 2,198.94
WRSYPRRA | 619.96 | 2,611.56
YFLLQQGP | 202.29 | 
YHNYLLHP | 240.19 | 1,309.00

Target: T2, native human ESRRG protein …
Assay: peptide microarray, Iteration 2; bound ESRRG detected with fluorescent anti-ESRRG mAb
Details: not given
Description: as §1
Iterative sequence expansion and arraying of 10 highest binding ligands to ESRRG from Iteration 1 was carried out and the new peptide sequences were synthesized on an array and screened against the protein, as described above. In this step, the central 2 amino acids (core) in peptide sequences were maintained unchanged while outlying amino acids (2, 3, 6, and 7) were permuted (using Tier 1 and Tier 3 substitutions) in a ‘cipher’ or ‘combination’ lock approach.

Molecule | Sample B (Probe) Signal | log2 (Sample B/Sample A)
B1 | 2420 fluorescence intensity units | 3.47
B2 | 5020 fluorescence intensity units | 4.08
B3 | 1750 fluorescence intensity units | 3.25
B4 | 1300 fluorescence intensity units | 2.97
B5 | 4370 fluorescence intensity units | 4.45
B6 | 2200 fluorescence intensity units | 2.91
B7 | 2240 fluorescence intensity units | 3.84
B8 | 2780 fluorescence intensity units | 3.32
B9 | 4800 fluorescence intensity units | 4.9
B10 | 2340 fluorescence intensity units | 3.69
B11 | 7240 fluorescence intensity units | 6.47
B12 | 5590 fluorescence intensity units | 4.27
B13 | 2300 fluorescence intensity units | 3.41
B14 | 2460 fluorescence intensity units | 3.55
B15 | 13800 fluorescence intensity units | 4.88
B16 | 5440 fluorescence intensity units | 3.32
B17 | 2860 fluorescence intensity units | 3.97
B18 | 19000 fluorescence intensity units | 4.56
